Assay results taken from article PMC11930357.

Tests used:
[1] = target: HP1α ΔCSD, 1-120 (UniProt P45973); experiment: SEC-MALS molar mass; conditions: reference: ΔCSD expressed without CK2; sites S11,S12,S13,S14
[2] = target: HP1α (UniProt P45973); experiment: SEC-MALS molar mass (CSD-mediated dimer); conditions: sites S11,S12,S13,S14
[3] = target: Phosphorylated CSD deletion mutant of HP1α_S97A (residues 1–120, phosphorylated at Ser11–Ser14) (human) (UniProt P45973); experiment: SEC-SAXS; Superdex 200 Increase, 20 mM sodium phosphate pH 7.0, 1 mM DTT, 50 mM NaCl; Rg against concentration; profiles fitted with EOM and with reweighted CGMD ensembles (one- or two-molecule systems)

Chain of HP1α (P45973 whole entry, change not shown): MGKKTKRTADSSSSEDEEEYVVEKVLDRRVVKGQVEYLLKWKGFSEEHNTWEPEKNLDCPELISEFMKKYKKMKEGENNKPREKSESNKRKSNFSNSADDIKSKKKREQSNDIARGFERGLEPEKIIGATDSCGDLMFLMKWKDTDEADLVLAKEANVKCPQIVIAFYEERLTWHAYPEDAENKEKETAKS

“HP1α ΔCSD, 1-120 (from UniProt P45973) pΔCSD co-expressed with CK2” was tested, and the “other: molar mass” value [1] was “none in both; reference 16.3”.

With “HP1α (from UniProt P45973) pHP1α co-expressed with CK2, 50 mM NaCl” the “other: molar mass” value ([2]; reference: HP1α expressed without CK2, 50 mM NaCl) was “same; reference 45.7”.

Substance “Phosphorylated CSD deletion mutant of HP1α_S97A (residues 1–120, phosphorylated at Ser11–Ser14) (from UniProt P45973 1-120) (domain or fragment)” has a stoichiometry N [3] of 2.

For “HP1α (from UniProt P45973) pHP1α co-expressed with CK2, 500 mM NaCl”, the “other: molar mass” value ([2]; reference: HP1α expressed without CK2, 500 mM NaCl) was “same; reference 44.5”.
